# Laboratory results taken from the supplement of paper PMC9170038.
# Test system: MS2 coat protein
# Assay: apparent KD of MS2 coat protein; designed switch direction (-1 OFF switch, 1 ON switch): -1; higher = weaker reporter binding
# Summary of the method: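 The reported apparent KD is a per-design median over clusters, from curve fits of normalised cluster fluorescence. Protein titrations used SNAP-549-labelled MS2 coat protein, doubled from 0.7 or 1.5 nM to 3 µM, in Tris-HCl pH 7.5 buffer with KCl, MgCl2, BSA, DTT, tRNA and Tween-20, with no input, 200 uM small-molecule ligand, or an oligonucleotide input. The RNA switches were transcribed on Illumina chips by stalled E. coli RNA polymerase.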
# [1] = input ligand: microRNA oligo, concentration not stated
# [2] = Eterna round: R95, input ligand: FMN 200 uM
# [3] = Eterna round: R95, input ligand: microRNA oligo, concentration not stated
# [4] = Eterna round: R95, input ligand: none
Sequence,apparent KD of MS2 coat protein (input ligand: FMN 200 uM) [nM],apparent KD of MS2 coat protein [1] [nM],apparent KD of MS2 coat protein (input ligand: none) [nM],apparent KD of MS2 coat protein [2] [nM],apparent KD of MS2 coat protein [3] [nM],apparent KD of MS2 coat protein [4] [nM]
"AGACGGAGAAAAGGAUAUGAGACACUAGACGUCUCAGAAGGUUUAGCCAGUAGCUCCAACAUGAGGAUCACCCAUGUGGUCGUA [Eternabot solution 41] (Eterna round: R96, puzzle: Exclusion NG 1)",50,108,184,–,–,–
"GGAGCCUUAGGAUAUACAUGAGGAUCACCCAUGUGAUGUCGAAGCAAGGGUCUCCUAGGUAGAAGGAAGACAAU [Eternabot (L1) Solution 90] (Eterna round: R97, puzzle: Exclusion 3)",19.4,–,17.9,–,–,–
"GGUGUGCUAGGAUAUGCUUUGGGCUCGCUUACCUUCGUUUUACUUGAGGAUCACCCAAGUAGAAGGUGCUUGCC [salish99_ex2_r4_039] (Eterna round: R97, puzzle: Exclusion 2)",13.1,–,12.4,–,–,–
"GGUCGACAUGAGGAUCACCCAUGUCAGGAUAUCGUCACUGGAGCCUCGGCUCCAGUGACGAGAAGGGAUAUGAU [E1/17-A2] (Eterna round: R97, puzzle: Exclusion 1)",41.9,–,43.9,–,–,–
"CCACUGUCAGGAUAUCGUGCAUAAGCGUUUACACUUAUGUGCGAGAAGGGACAUGAGGAUCACCCAUGUAAACG [Omei Ex4 A28PK7] (Eterna round: R97, puzzle: Exclusion 4)",628,–,391,–,–,–
GGAAGACAUGAGGAUCACCCAUGUAAGGAUAUCGGAGGUAAGGGAGGAAGGAGAUAGGCGAGAAGGUACAGGUG [JR_Exclu1_Sub094] (puzzle: Exclusion 1),–,–,–,47.2,35.5,53
"GCAGCGUAGUCCAAAUAGGACAUACAUGAGGAUCACCCAUGUCAGGAUAUGGUCUGGAUUACAGGCCAGAAGGGACAAAGCUGC [Eli exng3 - 003] (Eterna round: R96, puzzle: Exclusion NG 3)",19,15.8,26,–,–,–
"UGAUCAGACCGAGGAUAUACAUGGAGGACCCACGUGAGUGGGUCCACUACAUGAGGAUCACCCAUGUAGAAGGCGGUCUGAUCU [JL ENG2 1.91] (Eterna round: R96, puzzle: Exclusion NG 2)",1880,91.3,128,–,–,–
"CCUUGUCUGAAGGAUAUCCGCCUAAAAGGCAAGGGAGAAGGUUAGACAUGAGGAUCACCCAUGUGCCGGUGUAA [EX6 A.26] (Eterna round: R97, puzzle: Exclusion 6)",21.7,–,25.1,–,–,–
"AAACAGGGAGGAUAUACAUGAGGAUCACCCAUGUUCGAGCGUCCUUGAGCUACCUCAGGUAGAAGGCCCAAAAG [Qubeon] (Eterna round: R97, puzzle: Exclusion 3)",151,–,32.9,–,–,–
UCUUUGUGAGGAUAUCAGUAGUAAAUAAAUAAAAUUACUACUGAGAAGGCACAUGAGGAUCACCCAUGUUCCUU [salish99_ex3_r3_091] (puzzle: Exclusion 4),–,–,–,–,13.5,–
"UUCAUGUAAGGAUAUGUAGUGAUGACGAAAUUUGUCGUUAAACAGAAGGUACAUGAGGAUCACCCAUGUAGCUA [EX4 B.9] (Eterna round: R97, puzzle: Exclusion 4)",133,–,27.4,–,–,–
AUUUUGUCAGGAUAUGAUUAGUAGGACGAGAGUGCUACUACUUAGAAGGGACAUGAGGAUCACCCAUGUAUUCC [Bring Us a Shrubbery-08] (puzzle: Exclusion 4),–,–,–,–,15,–
"UAAUGCAAGCAAAGAUCUUACAUGAGGAUCACCCAUGUGCUCGUCUUAUAAAGUACUAUCACGAAAGUGAUAGUACA [Mat - Sensor v3 - turn-off var 1 - Eli Mod - D91] (puzzle: Sensor v3, turn-off variant 1)",–,–,–,27.6,109,26.3
"CGAUAAUCCUAGGAUAUGCUAGACGAAAGUCUAGCAGAAGGAGGAACAUGAGGAUCACCCAUGUGUCCUAAUCG [Mat - Exclusion 6 - Eli Mod - D17] (Eterna round: R97, puzzle: Exclusion 6)",30.9,–,15.3,–,–,–
"GUUGUCCUUGUAAGGAUAUCCGGAUAGAGCAUAUCGGAGAAGGUACAUGAGGAUCACCCAUGUCUCACCGUGCU [Eternabot (L1) Solution 95] (Eterna round: R97, puzzle: Brourd's mod of Exclusion 4)",14.4,–,14.3,–,–,–
"UGUGUGAGACAGGAUAUGCUGGAUGUGUGGCGGGUAGAAGGGUCUACAUGAGGAUCACCCAUGUGGCCGGUUGG [Ex6 #69] (Eterna round: R97, puzzle: Exclusion 6)",15.8,–,18.9,–,–,–
